Source: patent CN117377689A (XENCOR INC, dated 2024)

These binders were tested against T1, His-tagged human GPC3 antigen (human, UniProt P51654 25-559, limits assumed) (assay: Octet BLI; His-tagged GPC3 captured on HIS1K sensor, bsAb (1+1 Fab-scFv-Fc) as analyte).
T1 construct: His-tagged antigen captured on HIS1K Octet sensors; also called 人GPC3; human glypican-3
T1 sequence (P51654 25-559 limits assumed): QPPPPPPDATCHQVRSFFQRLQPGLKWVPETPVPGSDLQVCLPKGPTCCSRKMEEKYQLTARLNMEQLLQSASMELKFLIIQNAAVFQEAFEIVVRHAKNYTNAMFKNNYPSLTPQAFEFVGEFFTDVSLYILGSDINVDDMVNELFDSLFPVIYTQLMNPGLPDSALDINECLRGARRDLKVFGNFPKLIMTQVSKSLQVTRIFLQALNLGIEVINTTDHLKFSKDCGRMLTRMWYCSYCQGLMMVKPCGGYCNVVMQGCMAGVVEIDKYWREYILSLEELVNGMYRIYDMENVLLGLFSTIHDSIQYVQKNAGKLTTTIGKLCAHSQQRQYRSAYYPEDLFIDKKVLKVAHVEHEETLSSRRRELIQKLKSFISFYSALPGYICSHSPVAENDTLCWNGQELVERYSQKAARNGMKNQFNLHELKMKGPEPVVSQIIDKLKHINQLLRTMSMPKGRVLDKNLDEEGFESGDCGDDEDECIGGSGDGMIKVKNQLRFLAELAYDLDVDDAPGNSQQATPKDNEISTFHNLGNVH

Binder	Kd
XENP35843 (GPC3-A H1.1_L1.16, 1+1 Fab-scFv-Fc bsAb with CD3 High-Int #1 scFv) (bispecific antibody) chain 1: QVQLVQSGAEVKKPGASVKVSCKASGYTFTDYEMHWVRQAPGQGLEWMGALEPKTGDTAYSQKFQGRVTMTADKSISTAYMELSRLRSDDTAVYYCTRFYSYTYWGQGTLVTVSSASTKGPSVFPLAPSSKSTSGGTAALGCLVKDYFPEPVTVSWNSGALTSGVHTFPAVLQSSGLYSLSSVVTVPSSSLGTQTYICNVNHKPSDTKVDKKVEPKSCDKTHTCPPCPAPPVAGPSVFLFPPKPKDTLMISRTPEVTCVVVDVKHEDPEVKFNWYVDGVEVHNAKTKPREEEYNSTYRVVSVLTVLHQDWLNGKEYKCKVSNKALPAPIEKTISKAKGQPREPQVYTLPPSREEMTKNQVSLTCDVSGFYPSDIAVEWESDGQPENNYKTTPPVLDSDGSFFLYSKLTVDKSRWEQGDVFSCSVMHEALHNHYTQKSLSLSPGK chain 2: not shown chain 3: DVVMTQSPLSLPVTLGQPASISCRSSQSLVHSSGNTYLHWYQQRPGQSPRLLIYKVSNRFSGVPDRFSGSGSGTDFTLKISRVEAEDVGVYFCSQSTHVPPTFGSGTKLEIKRTVAAPSVFIFPPSDEQLKSGTASVVCLLNNFYPREAKVQWKVDNALQSGNSQESVTEQDSKDSTYSLSSTLTLSKADYEKHKVYACEVTHQGLSSPVTKSFNRGEC	100 nM
XENP36941 (GPC3-A H1.1_L1.29, 1+1 Fab-scFv-Fc bsAb with CD3 High-Int #1 scFv) (bispecific antibody) chain 1: QVQLVQSGAEVKKPGASVKVSCKASGYTFTDYEMHWVRQAPGQGLEWMGALEPKTGDTAYSQKFQGRVTMTADKSISTAYMELSRLRSDDTAVYYCTRFYSYTYWGQGTLVTVSSASTKGPSVFPLAPSSKSTSGGTAALGCLVKDYFPEPVTVSWNSGALTSGVHTFPAVLQSSGLYSLSSVVTVPSSSLGTQTYICNVNHKPSDTKVDKKVEPKSCDKTHTCPPCPAPPVAGPSVFLFPPKPKDTLMISRTPEVTCVVVDVKHEDPEVKFNWYVDGVEVHNAKTKPREEEYNSTYRVVSVLTVLHQDWLNGKEYKCKVSNKALPAPIEKTISKAKGQPREPQVYTLPPSREEMTKNQVSLTCDVSGFYPSDIAVEWESDGQPENNYKTTPPVLDSDGSFFLYSKLTVDKSRWEQGDVFSCSVMHEALHNHYTQKSLSLSPGK chain 2: not shown chain 3: DVVMTQSPLSLPVTLGQPASISCRSSQSLVHSNGNTYLHWYQQRPGQSPRLLIYQVSNRFSGVPDRFSGSGSGTDFTLKISRVEAEDVGVYFCSQNTHVPPTFGSGTKLEIKRTVAAPSVFIFPPSDEQLKSGTASVVCLLNNFYPREAKVQWKVDNALQSGNSQESVTEQDSKDSTYSLSSTLTLSKADYEKHKVYACEVTHQGLSSPVTKSFNRGEC	70 nM
XENP36140 (GPC3-A H1.1_L1.31, 1+1 Fab-scFv-Fc bsAb with CD3 High-Int #1 scFv) (bispecific antibody) chain 1: QVQLVQSGAEVKKPGASVKVSCKASGYTFTDYEMHWVRQAPGQGLEWMGALEPKTGDTAYSQKFQGRVTMTADKSISTAYMELSRLRSDDTAVYYCTRFYSYTYWGQGTLVTVSSASTKGPSVFPLAPSSKSTSGGTAALGCLVKDYFPEPVTVSWNSGALTSGVHTFPAVLQSSGLYSLSSVVTVPSSSLGTQTYICNVNHKPSDTKVDKKVEPKSCDKTHTCPPCPAPPVAGPSVFLFPPKPKDTLMISRTPEVTCVVVDVKHEDPEVKFNWYVDGVEVHNAKTKPREEEYNSTYRVVSVLTVLHQDWLNGKEYKCKVSNKALPAPIEKTISKAKGQPREPQVYTLPPSREEMTKNQVSLTCDVSGFYPSDIAVEWESDGQPENNYKTTPPVLDSDGSFFLYSKLTVDKSRWEQGDVFSCSVMHEALHNHYTQKSLSLSPGK chain 2: not shown chain 3: DVVMTQSPLSLPVTLGQPASISCRSSQSLVHSNGNTYLHWYQQRPGQSPRLLIYYVSNRFSGVPDRFSGSGSGTDFTLKISRVEAEDVGVYFCSQNTHVPPTFGSGTKLEIKRTVAAPSVFIFPPSDEQLKSGTASVVCLLNNFYPREAKVQWKVDNALQSGNSQESVTEQDSKDSTYSLSSTLTLSKADYEKHKVYACEVTHQGLSSPVTKSFNRGEC	400 nM
